Biological target: HER2 on HER2-expressing SKOV3 and BT474 cells (human (endogenous in SKOV3 and BT474)) (UniProt P04626)
Test: radioligand binding; LigandTracer Yellow, living SKOV3 cells (10^6) on a segment of a dish; radiolabeled ADAPT at 0.333 and 1 nM; association and dissociation recorded, duplicates; InteractionMap software, two types of interaction

Row | KD1 (first of two types of interaction) | KD2 (second of two types of interaction) | Substance
1 | 174 pM | – | ^99mTc-DEAVDANS-ADAPT6-GSSC (designed binder)
2 | 32.3 pM | 1.31 nM | ^111In-DEAVDANS-ADAPT6-GSSC-DOTA (designed binder)

Reference: PMC5676751
